Source: publication PMC6181577 (Molecular cell, 2018)

Key:
Ubiquitin (WT) = Ubiquitin (WT) (UniProt P0CG48 1-76); test: NMR titration
SEC = biological target: the molecule itself; test: SEC

Kd (Ubiquitin (WT))	Binder	binding result (SEC)
3000 nM	UBQLN2 450–624 (domain or fragment, human) RAMQALMQIQQGLQTLATEAPGLIPSFTPGVGVGVLGTAIGPVGPVTPIGPIGPIVPFTPIGPIGPIGPTGPAAPPGSTGSGGPTGPTVSSAAPSETTSPTSESGPNQQFIQQMVQALAGANAPQLPNPEVRFQQQLEQLNAMGFLNREANLQALIATGGDINAAIERLLGSQPSW	binds
	UBQLN2 379–624 (domain or fragment, human) NPQLIQNMLSAPYMRSMMQSLSQNPDLAAQMMLNSPLFTANPQLQEQMRPQLPAFLQQMQNPDTLSAMSNPRAMQALMQIQQGLQTLATEAPGLIPSFTPGVGVGVLGTAIGPVGPVTPIGPIGPIVPFTPIGPIGPIGPTGPAAPPGSTGSGGPTGPTVSSAAPSETTSPTSESGPNQQFIQQMVQALAGANAPQLPNPEVRFQQQLEQLNAMGFLNREANLQALIATGGDINAAIERLLGSQPSW	binds
